Kd, koff and kon data for nine molecules are collected here from US20250011438A1 (INSTITUTE FOR BASIC SCIENCE, published 2025).

Where a chain is given by its changes, count along the chain named.

First the molecules themselves.
B1: humanized anti-Tie2 antibody 3H7H11G4 (antibody, V domains shown)
VH: QVQLVQSGAEVKKPGASVKVSCKASGYTFTSYWMNWVRQAPGQGLEWMGMIHPSDSETRLNQKFMDRVTMTRDTSTSTVYMELSSLRSEDTAVYYCARGLYGNSWGQGTLVTVSS
VL: DIQMTQSPSSLSASVGDRVTITCRASQDIGISLNWYQQKPGKAPKRLIYATSSLDSGVPSRFSGSGSGTEFTLTISSLQPEDFATYYCLQYASSPYTFGQGTKVEIK
B2: humanized anti-Tie2 antibody 3H7H21G4 (antibody, V domains shown)
VH: B1 VH with A40R, M48I
VL: B1 VL
B3: humanized anti-Tie2 antibody 3H7H12G4 (antibody, V domains shown)
VH: B1 VH
VL: B1 VL with Y36L, K39E, S60K
B4: humanized anti-Tie2 antibody 3H7H22G4 (antibody, V domains shown)
VH: B1 VH with A40R, M48I
VL: B1 VL with Y36L, K39E, S60K
B5: mouse anti-Tie2 antibody 3H7 (antibody, V domains shown)
VH: QVQLQQPGAELVRPGASVKLSCKASGYSFTSYWMNWVKQRPGQGLEWIGMIHPSDSETRLNQKFMDKATLTVDKSSSTAYMQLSSPTSEDSAVYYCARGLYGNSWGQGTLVTVSA
VL: DIQMTQSPSSLSASLGERVSLTCRASQDIGISLNWLQQEPDGTIKRLIYATSSLDSGVPKRFSGSRSGSDYSLTISSLESEDFVDYYCLQYASSPYTFGGGTKLEIK
B6: mouse anti-Tie2 antibody 11C4 (antibody, V domains shown)
VH: QVQLQQPGADLVRPGASVTLSCKASGYSFTSYWMNWVKQRPGQGLEWIGMIHPSDSETRLNQKFKDKATLTVDKSSSTAYMQLRSPTSEDSAVYYCAGLTIYFDYWGQGTTLTVSS
VL: B5 VL
B7: mouse anti-Tie2 antibody 4A4 (antibody, V domains shown)
VH: B5 VH with M65K, L100Y, G102F, N103D, S104Y, L110T, V111L, A115S
VL: B5 VL with S63T, A92V, Y96W
B8: mouse anti-Tie2 antibody 3E12 (antibody, V domains shown)
VH: B5 VH with E10D, M65K, R98K, L100Y, G102F, N103G, S104Y, L110T, V111L, A115S
VL: B5 VL with S53N, Y96P
B9: mouse anti-Tie2 antibody 3B2 (antibody, V domains shown)
VH: B5 VH with M65K, M81L, L100N, G102F, N103D, S104C, L110T, V111L, A115S
VL: B5 VL with S53I, Y96W

T1 sequence (Q02763 349-738 limits assumed): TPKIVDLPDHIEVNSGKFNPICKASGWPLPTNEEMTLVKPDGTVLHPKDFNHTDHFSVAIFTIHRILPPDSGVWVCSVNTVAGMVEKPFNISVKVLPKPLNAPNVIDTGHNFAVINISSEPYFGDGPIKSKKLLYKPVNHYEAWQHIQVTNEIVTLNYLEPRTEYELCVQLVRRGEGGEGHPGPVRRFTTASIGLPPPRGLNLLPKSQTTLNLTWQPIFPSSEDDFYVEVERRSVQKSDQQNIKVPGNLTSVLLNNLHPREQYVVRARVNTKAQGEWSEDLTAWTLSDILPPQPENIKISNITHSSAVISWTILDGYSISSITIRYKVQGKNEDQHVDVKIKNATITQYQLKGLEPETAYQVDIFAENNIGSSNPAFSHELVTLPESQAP
T2 sequence (Q02763 349-738 limits assumed): as above

One assay has as its target T1, recombinant human Tie2 Ig3-FNIII(1-3) domains (human, UniProt Q02763 349-738).
T1 construct: also called hTie2-Ig3-FNIII(1-3)
The experiment in a line: BLI (Octet), antibody immobilised on AR2G sensor, recombinant hTie2 as analyte, 1:1 global fit. The method, then:
The affinity of humanized anti-Tie2 antibody against hTie2 was measured using Octet® system (ForteBio) where Black 96-well plates (96 well F-type black plates, Greiner) were used. […] After the hydration, humanized anti-Tie2 antibody was diluted in 10 mM sodium acetate, pH 6.0 buffer at a concentration of 10 μg/ml, fixed on AR2G biosensor, and blocked with 1M ethanolamine. The recombinant hTie2 was diluted to 50, 25, 12.5, 6.25, 3.125, and 0 nM with 1× kinetic buffer, and subjected to association for 300 sec and dissociation for 900 sec.
For orientation: Biolayer interferometry detects binding as a change in optical thickness at a sensor tip.
In the case of B1, the Kd (usually the equilibrium constant for the complex coming apart) came out at 7470 pM, the koff (commonly the first-order rate constant of dissociation) was 0.000467 s⁻¹ and the kon (usually a measure of how fast the partners come together) turned out to be 62600 M⁻¹ s⁻¹.

Regarding B2, the Kd was determined as 6590 pM, the koff was 0.000517 s⁻¹ and the kon was 78500 M⁻¹ s⁻¹.

With B3, the Kd was 96500 pM, the koff was 0.000999 s⁻¹ and the kon amounted to 10400 M⁻¹ s⁻¹.

Regarding B4, the Kd was 39700 pM, the koff worked out at 0.000656 s⁻¹ and the on-rate constant (kon) came out at 16500 M⁻¹ s⁻¹.

In the case of B5, the Kd turned out to be 26.9 pM, the koff was 1.05e-05 s⁻¹ and the kon came out at 558000 M⁻¹ s⁻¹.

Another assay has as its target T2, human Tie2 (hTie2), as immobilised in the Octet assay of Example 1.4 (human, UniProt Q02763 349-738, limits assumed).
T2 construct: The protein used was probably a soluble recombinant form, possibly hTie2-Ig3-FNIII(1-3)
The experiment in a line: BLI (Octet), hTie2 immobilised on AR2G sensor, antibody as analyte, 1:1 global fit. The method, then:
The affinity of mouse monoclonal antibody against hTie2 was measured using Octet® system (ForteBio) where Black 96-well plates (96 well F-type black plates, Greiner) were used. […] After the hydration, hTie2 was diluted in 10 mM sodium acetate, pH 6.0 buffer at a concentration of 10 μg/ml, fixed on AR2G biosensor, and blocked with 1M ethanolamine. The mouse monoclonal anti-Tie2 antibodies were diluted to 50, 25, 12.5, 6.25, 3.125, and 0 nM with 1× kinetic buffer, and subjected to association for 300 seconds and dissociation for 900 seconds.
In the case of B6, the Kd stood at 215 pM, the koff came to 0.000327 s⁻¹ and the kon is 1.52e+06 M⁻¹ s⁻¹.

For the molecule B7, binding was characterised by a dissociation constant (Kd) of 105 pM, the koff worked out at 5.53e-05 s⁻¹ and the kon stood at 525000 M⁻¹ s⁻¹.

The molecule B5 had a Kd of 55.6 pM, a koff of 2.13e-05 s⁻¹ and a kon of 384000 M⁻¹ s⁻¹.

As for B8, binding was characterised by a dissociation constant (Kd) of 251 pM, the koff was determined as 9.12e-05 s⁻¹ and the kon turned out to be 363000 M⁻¹ s⁻¹.

Molecule B9 displayed a Kd of under 1 pM, a koff of under 1e-07 s⁻¹ and a kon of 444000 M⁻¹ s⁻¹.

Another assay addresses T1, recombinant human Tie2 Ig3-FNIII(1-3) …. The experiment in a line: stated in the HDX-MS sample preparation; how it was measured is not given; HDX-MS sample preparation; hTie2-Ig3-FNIII(1-3) fragment in deuterium labeling buffer; assay not given.
Consider B5, for which the Kd is 25000 pM.
